The text below walks through data of paper PMC10397247.

One assay addresses T1, 4H3907-bA.
T1 chain: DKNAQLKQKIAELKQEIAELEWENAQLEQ
Nature of the assay: two-hybrid library CCNG1.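 Note: natural log of median RNA to DNA barcode read ratio; higher means stronger binding.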

The target of a further assay is T2, 4H4038-bA.
T2 chain: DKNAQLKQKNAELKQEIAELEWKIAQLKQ
Nature of the assay: two-hybrid library CCNG1.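 Note: natural log of median RNA to DNA barcode read ratio; higher means stronger binding.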

The next assay deals with T3, 4H607-bA.
T3 chain: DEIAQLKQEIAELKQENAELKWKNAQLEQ
Nature of the assay: two-hybrid library CCNG1.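 Note: natural log of median RNA to DNA barcode read ratio; higher means stronger binding.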

A further assay concerns the target T4, 4H470-bA.
T4 chain: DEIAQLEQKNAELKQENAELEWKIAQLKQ
Nature of the assay: two-hybrid library CCNG1.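 Note: natural log of median RNA to DNA barcode read ratio; higher means stronger binding.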

The target in the next assay is T5, 4H3961-bA.
T5 chain: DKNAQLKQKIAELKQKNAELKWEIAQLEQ
Nature of the assay: two-hybrid library CCNG1.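 Note: natural log of median RNA to DNA barcode read ratio; higher means stronger binding.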

The target of a further assay is T6, O2.
T6 chain: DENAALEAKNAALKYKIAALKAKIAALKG
Nature of the assay: two-hybrid library CCNG1.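 Note: natural log of median RNA to DNA barcode read ratio; higher means stronger binding.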

The next assay has as its target T7, O3.
T7 chain: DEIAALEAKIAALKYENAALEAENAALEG
Nature of the assay: two-hybrid library CCNG1.

In another assay the target is T8, O7.
T8 chain: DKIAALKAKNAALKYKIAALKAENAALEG
Nature of the assay: two-hybrid library CCNG1.

The target in another assay is T9, O8.
T9 chain: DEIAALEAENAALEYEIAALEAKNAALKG
Nature of the assay: two-hybrid library CCNG1.

Another assay concerns the target T10, O16.
T10 chain: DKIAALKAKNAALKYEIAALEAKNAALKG
Nature of the assay: two-hybrid library CCNG1.

The next assay deals with T11, O6.
T11 chain: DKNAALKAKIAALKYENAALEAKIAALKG
Nature of the assay: two-hybrid library CCNG1.

Another assay has as its target T12, O9.
T12 chain: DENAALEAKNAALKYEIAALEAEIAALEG
Nature of the assay: two-hybrid library CCNG1.

A further assay concerns the target T13, O15.
T13 chain: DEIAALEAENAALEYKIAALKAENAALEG
Nature of the assay: two-hybrid library CCNG1.

A further assay deals with T14, O5.
T14 chain: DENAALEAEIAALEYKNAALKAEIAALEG
Nature of the assay: two-hybrid library CCNG1.

The target of the next assay is T15, O4.
T15 chain: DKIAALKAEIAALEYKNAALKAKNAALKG
Nature of the assay: two-hybrid library CCNG1.

Another assay concerns the target T16, O16-bP.
T16 chain: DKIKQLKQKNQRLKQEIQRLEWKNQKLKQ
Nature of the assay: two-hybrid library CCNG1.

For a further assay, the target named is T17, O5-bP.
T17 chain: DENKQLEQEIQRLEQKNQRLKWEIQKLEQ
Nature of the assay: two-hybrid library CCNG1.

The next assay deals with T18, O4-bP.
T18 chain: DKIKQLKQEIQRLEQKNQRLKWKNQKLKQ
Nature of the assay: two-hybrid library CCNG1.

A further assay deals with T19, O7-bP.
T19 chain: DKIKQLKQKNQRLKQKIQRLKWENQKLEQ
Nature of the assay: two-hybrid library CCNG1.

In the next assay the target is T20, O6-bP.
T20 chain: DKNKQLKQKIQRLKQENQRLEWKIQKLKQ
Nature of the assay: two-hybrid library CCNG1.

The target in a further assay is T21, O2-bP.
T21 chain: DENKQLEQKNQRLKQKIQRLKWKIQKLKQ
Nature of the assay: two-hybrid library CCNG1.

The target of another assay is T22, O8-bP.
T22 chain: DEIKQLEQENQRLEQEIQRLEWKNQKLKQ
Nature of the assay: two-hybrid library CCNG1.

In the next assay the target is T23, O3-bP.
T23 chain: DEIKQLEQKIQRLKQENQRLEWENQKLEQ
Nature of the assay: two-hybrid library CCNG1.

For the next assay, the target named is T24, O9-bP.
T24 chain: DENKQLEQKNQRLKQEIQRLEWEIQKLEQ
Nature of the assay: two-hybrid library CCNG1.

A further assay has as its target T25, O15-bP.
T25 chain: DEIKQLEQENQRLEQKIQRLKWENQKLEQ
Nature of the assay: two-hybrid library CCNG1.

Another assay addresses T26, 4H2702-bH.
T26 chain: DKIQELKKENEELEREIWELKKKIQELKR
Nature of the assay: two-hybrid library CCNG1.

A further assay addresses T27, 4H3427-bH.
T27 chain: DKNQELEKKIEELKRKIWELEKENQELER
Nature of the assay: two-hybrid library CCNG1.

For a further assay, the target named is T28, 4H3112-bH.
T28 chain: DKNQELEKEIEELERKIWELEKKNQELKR
Nature of the assay: two-hybrid library CCNG1.

Another assay addresses T29, 4H780-bH.
T29 chain: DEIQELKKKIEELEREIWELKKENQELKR
Nature of the assay: two-hybrid library CCNG1.

In a further assay the target is T30, 4H754-bH.
T30 chain: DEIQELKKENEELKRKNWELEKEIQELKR
Nature of the assay: two-hybrid library CCNG1.

A further assay deals with T31, 4H3010-bH.
T31 chain: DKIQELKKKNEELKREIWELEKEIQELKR
Nature of the assay: two-hybrid library CCNG1.

Another assay concerns the target T32, 4H3926-bH.
T32 chain: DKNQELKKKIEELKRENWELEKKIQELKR
Nature of the assay: two-hybrid library CCNG1.

For the next assay, the target named is T33, 4H683-bH.
T33 chain: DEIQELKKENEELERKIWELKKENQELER
Nature of the assay: two-hybrid library CCNG1.

For the next assay, the target named is T34, 4H2627-bH.
T34 chain: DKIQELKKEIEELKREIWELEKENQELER
Nature of the assay: two-hybrid library CCNG1.

For the next assay, the target named is T35, 4H855-bH.
T35 chain: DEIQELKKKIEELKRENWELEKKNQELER
Nature of the assay: two-hybrid library CCNG1.

A further assay addresses T36, 4H2673-bH.
T36 chain: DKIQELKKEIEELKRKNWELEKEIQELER
Nature of the assay: two-hybrid library CCNG1.

The target of a further assay is T37, 4H4073-bH.
T37 chain: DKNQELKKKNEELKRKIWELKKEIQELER
Nature of the assay: two-hybrid library CCNG1.

The target in another assay is T38, 4H346-bH.
T38 chain: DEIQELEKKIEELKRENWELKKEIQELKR
Nature of the assay: two-hybrid library CCNG1.

In another assay the target is T39, 4H457-bH.
T39 chain: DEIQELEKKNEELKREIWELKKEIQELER
Nature of the assay: two-hybrid library CCNG1.

For the next assay, the target named is T40, 4H575-bH.
T40 chain: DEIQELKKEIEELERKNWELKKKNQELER
Nature of the assay: two-hybrid library CCNG1.

For the next assay, the target named is T41, 4H797-bH.
T41 chain: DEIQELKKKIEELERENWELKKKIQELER
Nature of the assay: two-hybrid library CCNG1.

A further assay deals with T42, 4H968-bH.
T42 chain: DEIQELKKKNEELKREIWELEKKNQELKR
Nature of the assay: two-hybrid library CCNG1.

The next assay addresses T43, 4H953-bH.
T43 chain: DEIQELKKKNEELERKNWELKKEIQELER
Nature of the assay: two-hybrid library CCNG1.

A further assay deals with T44, 4H918-bH.
T44 chain: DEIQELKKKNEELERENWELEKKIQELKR
Nature of the assay: two-hybrid library CCNG1.

The next assay addresses T45, Q8-AA.
T45 chain: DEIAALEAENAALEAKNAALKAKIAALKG
Nature of the assay: two-hybrid library CCmax.

Another assay addresses T46, 4H3297-bN.
T46 chain: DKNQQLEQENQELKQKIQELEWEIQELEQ
Nature of the assay: two-hybrid library CCNG1.

The target in another assay is T47, 4H2931-bN.
T47 chain: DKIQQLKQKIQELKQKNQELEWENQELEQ
Nature of the assay: two-hybrid library CCNG1.

In a further assay the target is T48, 4H349-bN.
T48 chain: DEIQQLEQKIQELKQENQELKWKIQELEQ
Nature of the assay: two-hybrid library CCNG1.

The target in another assay is T49, 4H3381-bN.
T49 chain: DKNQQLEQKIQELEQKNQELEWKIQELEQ
Nature of the assay: two-hybrid library CCNG1.

The target in the next assay is T50, 4H3364-bN.
T50 chain: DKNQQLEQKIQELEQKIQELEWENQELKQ
Nature of the assay: two-hybrid library CCNG1.

For the next assay, the target named is T51, 4H2518-bN.
T51 chain: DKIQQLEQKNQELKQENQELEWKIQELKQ
Nature of the assay: two-hybrid library CCNG1.

The next assay deals with T52, 4H949-bN.
T52 chain: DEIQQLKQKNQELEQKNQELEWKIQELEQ
Nature of the assay: two-hybrid library CCNG1.

The target in the next assay is T53, 4H56-bN.
T53 chain: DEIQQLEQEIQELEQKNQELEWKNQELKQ
Nature of the assay: two-hybrid library CCNG1.

The target of the next assay is T54, 4H570-bH.
T54 chain: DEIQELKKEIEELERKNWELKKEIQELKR
Nature of the assay: two-hybrid library CCNG1.

The target in a further assay is T55, 4H932-bN.
T55 chain: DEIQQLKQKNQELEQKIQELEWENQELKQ
Nature of the assay: two-hybrid library CCNG1.

The target in the next assay is T56, 4H2760-bN.
T56 chain: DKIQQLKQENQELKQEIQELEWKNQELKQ
Nature of the assay: two-hybrid library CCNG1.

For the next assay, the target named is T57, 4H3041-bN.
T57 chain: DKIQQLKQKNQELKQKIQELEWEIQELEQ
Nature of the assay: two-hybrid library CCNG1.

Another assay concerns the target T58, 4H2859-bN.
T58 chain: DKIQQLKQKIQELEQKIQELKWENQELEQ
Nature of the assay: two-hybrid library CCNG1.

A further assay deals with T59, 4H264-bN.
T59 chain: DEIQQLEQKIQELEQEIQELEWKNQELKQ
Nature of the assay: two-hybrid library CCNG1.

For the next assay, the target named is T60, 4H796-bN.
T60 chain: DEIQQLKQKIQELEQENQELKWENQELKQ
Nature of the assay: two-hybrid library CCNG1.

In the next assay the target is T61, 4H2585-bN.
T61 chain: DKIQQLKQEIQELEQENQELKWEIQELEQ
Nature of the assay: two-hybrid library CCNG1.

Another assay concerns the target T62, 4H730-bN.
T62 chain: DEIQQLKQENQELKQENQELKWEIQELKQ
Nature of the assay: two-hybrid library CCNG1.

DKNAQLKQKIAELKQEIAELEWENAQLEQ [4H3907-bA]: the interaction score with 4H3907-bA is 0.8; with 4H4038-bA, -0.611; with 4H607-bA, -0.806; with 4H470-bA, -1.37; with 4H3961-bA, -1.16.
For DEIAALEAENAALEYKIAALKAENAALEG [O15], the interaction score with O2 was -2.21; with O3 it was -2.17; in the assay with O7, -0.707; in the assay with O8, -1.73; with O16 it was 1.41; with O6, -2.48. The interaction score with O9 was -2.28; in the assay with O15 it was -1.57; in the assay with O5, -1.45; in the assay with O4, -1.8.
On to DKNAQLKQKNAELKQEIAELEWKIAQLKQ [4H4038-bA], for which the interaction score with 4H4038-bA is -0.541.
In the case of DEIKQLEQENQRLEQKIQRLKWENQKLEQ [O15-bP], the interaction score was 1.51 in the assay with O16-bP; -0.178 with O5-bP; -1.2 with O4-bP; -0.235 with O7-bP; -0.729 in the assay with O6-bP; -1.39 with O2-bP. In addition, the interaction score with O8-bP was -0.223; with O3-bP it was -0.872; with O9-bP it was -1.06; with O15-bP, -0.0595.
On to DKIKQLKQKNQRLKQEIQRLEWKNQKLKQ [O16-bP], for which the interaction score was -0.576 in the assay with O16-bP; -0.672 with O5-bP; -1.21 with O4-bP; -1.1 in the assay with O7-bP; 0.641 with O6-bP; -1.5 with O2-bP. Besides, the interaction score in the assay with O8-bP was 1.44; with O3-bP, -1.06; with O9-bP, -1.13.
Turning to DKIQELKKEIEELKREIWELEKENQELER [4H2627-bH], the interaction score with 4H2702-bH was 0.512; in the assay with 4H3427-bH, 1.18; with 4H3112-bH, -0.225; with 4H780-bH, -0.424; with 4H754-bH it was -1.94; with 4H3010-bH it was 0.547. The interaction score with 4H3926-bH is -0.251; with 4H683-bH, 0.431; with 4H2627-bH, 1.3; in the assay with 4H855-bH, -0.425; in the assay with 4H2673-bH it was 0.273; with 4H4073-bH, 1.38. The interaction score with 4H346-bH was -0.309; in the assay with 4H457-bH it was -1.91; with 4H575-bH it was -0.0013; with 4H797-bH, -0.67; with 4H968-bH, 0.133; with 4H953-bH it was -1.4. Moreover, the interaction score with 4H918-bH was -0.493.
DEIAALEAENAALEAKNAALKAKIAALKG [Q8-AA] yielded an interaction score with Q8-AA of -1.19.
As for DKIQQLEQKNQELKQENQELEWKIQELKQ [4H2518-bN], the interaction score in the assay with 4H3297-bN was -0.555; with 4H2931-bN, -0.539; with 4H349-bN it was -0.274; in the assay with 4H3381-bN it was -0.272; with 4H3364-bN, -0.536; with 4H2518-bN it was -0.0161. Moreover, the interaction score with 4H949-bN was -0.152; with 4H56-bN it was -0.0872; with 4H570-bH, -2.15; with 4H932-bN, -0.482; with 4H2760-bN it was 0.227; with 4H3041-bN, -0.522. For the same molecule, the interaction score was -0.834 with 4H2859-bN; 1.11 with 4H264-bN; 0.473 with 4H796-bN; 0.403 with 4H2585-bN; 1.02 with 4H730-bN.
